According to patent US20200140562A1 (Innovent, published 2020):

T1: human OX40 on cells (CHO-hOX40, 293HEK-hOX40, Jurkat-hOX40, activated primary CD4+ T cells) (human, UniProt P43489 29-277)
T1 construct: whole, on cells; The cell type is told in each assay; also called CHO-OX40
T1 sequence (looked up): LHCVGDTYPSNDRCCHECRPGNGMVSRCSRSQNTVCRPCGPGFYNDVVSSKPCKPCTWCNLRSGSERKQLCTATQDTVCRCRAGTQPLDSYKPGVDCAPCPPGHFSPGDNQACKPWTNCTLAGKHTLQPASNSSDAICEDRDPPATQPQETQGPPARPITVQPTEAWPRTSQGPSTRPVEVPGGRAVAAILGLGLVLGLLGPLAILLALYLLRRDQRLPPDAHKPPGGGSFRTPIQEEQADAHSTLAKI

T2: mouse OX40Fc (Acro Biosystems) (mouse, UniProt P47741 20-211, limits assumed)
T2 construct: Bought; not shown: Fc
T2 sequence (looked up): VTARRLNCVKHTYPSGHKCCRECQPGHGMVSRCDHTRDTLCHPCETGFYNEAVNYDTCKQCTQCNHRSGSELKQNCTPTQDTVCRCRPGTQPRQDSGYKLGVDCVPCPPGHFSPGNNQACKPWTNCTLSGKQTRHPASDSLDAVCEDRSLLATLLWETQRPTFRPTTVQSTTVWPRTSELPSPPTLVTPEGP


Legend:
[1] = target: T1, human OX40 on cells (CHO-hOX40, …); assay: flow cytometry, CHO-hOX40, 100 nM
Method: CHO-hOX40 cells (0.2×10⁶ cells) are incubated with the experimental antibody at 100 nM for 30 min in PBS 0.1% BSA on ice. Cells are then washed at least twice, and are incubated with a secondary antibody (PE-labelled, SouthernBiotech, at final concentration of 5 μg/ml) in PBS 0.1% BSA for 30 min on ice (protected from light). Cells are washed at least twice and analysed via flow cytometry. Flow cytometry is performed on a Canto II system (BD Biosciences) and MFIs are calculated accordingly.

[2] = target: T1, human OX40 on cells (CHO-hOX40, …); assay: flow cytometry, MFI on CHO-hOX40 over wild-type CHO
[3] = target: T1, human OX40 on cells (CHO-hOX40, …); assay: flow cytometry, CHO-hOX40, 100 nM blocker, competitor OX40L-hFc-fluorescein
Method: Cells are washed 3×. Flow cytometry is performed on an Accuri C6 system (BD Biosciences) and MFIs are calculated on the C6 software.

[4] = target: T1, human OX40 on cells (CHO-hOX40, …); assay: flow cytometry, 293HEK-hOX40, 8 nM
Method: (§1) The binding of an antibody of the present invention to human OX40 may be measured in a flow cytometry assay. […] Cells are then washed at least twice, and are incubated with a secondary antibody (PE-labelled, SouthernBiotech, at final concentration of 5 μg/ml) in PBS 0.1% BSA for 30 min on ice (protected from light). Cells are washed at least twice and analysed via flow cytometry. Flow cytometry is performed on an Accuri C6 system (BD Biosciences) and MFIs are calculated accordingly.

[5] = target: T1, human OX40 on cells (CHO-hOX40, …); assay: flow cytometry, activated CD4+ T cells, donor 1, 100 nM
Method: (§2) Primary CD4+ T cells from healthy donors are activated with anti-CD3/CD28 DynaBeads(Invitrogen) for 48 hours and 0.2×10⁶ cells are incubated with the experimental antibody at 100 nM for 30 min in PBS 0.1% BSA on ice. Cells are then washed at least twice, and are incubated with a secondary antibody (PE-labelled, SouthernBiotech, at final concentration of 5 μg/ml) in PBS 0.1% BSA for 30 min on ice (protected from light). Cells are washed at least twice and analysed via flow cytometry. Flow cytometry is performed on an Accuri C6 system (BD Biosciences) and MFIs are calculated accordingly.

[6] = target: T1, human OX40 on cells (CHO-hOX40, …); assay: flow cytometry, activated CD4+ T cells, donor 2, 100 nM
Method: as §2

[7] = target: T1, human OX40 on cells (CHO-hOX40, …); assay: cell-based or functional assay
[8] = target: T1, human OX40 on cells (CHO-hOX40, …); assay: flow cytometry, 293HEK-hOX40, 1.6 nM
Method: as §1

[9] = target: T2, mouse OX40Fc (Acro Biosystems); assay: BLI, IgG1 on tip, mouse OX40-Fc in solution
[10] = target: T3, cyno OX40_Fc (Acro Biosystems) (cyno); assay: BLI, IgG1 on tip, cyno OX40-Fc 100 nM, avid
T3 construct: Bought
Method: (§3) Sensors with loaded antibodies were exposed to 100 nM OX40 antigens for 5 min, afterwards they were transferred to assay buffer for dissociation of 5 min for off-rate measurement. Kinetics was analysed using the 1:1 binding model.

[11] = target: T1, human OX40 on cells (CHO-hOX40, …); assay: flow cytometry, 293HEK-hOX40, 40 nM
Method: as §1

[12] = target: T4, human OX40_Fc (R&D Systems) (human, UniProt P43489 29-216); assay: BLI, IgG1 on tip, hOX40-Fc 50 nM, avid
T4 construct: Bought
Method: as §3

[13] = target: T1, human OX40 on cells (CHO-hOX40, …); assay: flow cytometry, 293HEK-hOX40, 200 nM
Method: as §1

[14] = target: T2, mouse OX40Fc (Acro Biosystems); assay: BLI, IgG1 on tip, mouse OX40-Fc 100 nM, avid
Method: as §3

Binder | CHO-OX40 binding intensity (MFI) [1] | Fold difference [2] | MFI of OX40L signal on CHO-OX40 cells [3] | MFI [4] | MFI [5] | MFI [6] | NFkB-Luc fold change in Jurkat stimulated by PHA+ anti-CD28 [7] | NFkB-Luc fold change in Jurkat stimulated by anti-CD3+ anti-CD28 [7] | MFI [8] | binding result [9] | Kd [10] | MFI [11] | Kd [12] | MFI [13] | Kd [14]
ADI-20048, IgG1 format (antibody, V domains shown, Made in yeast) VH: QVQLQESGPGLVKPSETLSLTCTVSGGSISSYYWSWIRQPPGKGLEWIGYIYSSGSTNYNPSLKSRVTISVDTSKNQFSLKLSSVTAADTAVYYCARDAPGGSSYQDYYMDVWGKGTTVTVSS VL: EIVLTQSPATLSLSPGERATLSCRASQSVSSYLAWFQQKPGQAPRLLIYDASNRATGIPARFSGSGSGTDFTLTISSLEPEDFAVYYCQQAFSMPPTFGGGTKVEIKR | 143000 MFI | 1470 fold | 34300 MFI | 1.73e+06 MFI | 43100 MFI | 62600 MFI | 3.63 fold over IgG4 control | 5.77 fold over IgG4 control | 977000 MFI |  | 9.86 nM | 1.85e+06 MFI | 3.68 nM | 1.7e+06 MFI | 3.76 nM
ADI-20065, IgG1 format (antibody, V domains shown, Made in yeast) VH: QLQLQESGPGLVKPSETLSLTCTVSGGSISSSSYYWGWIRQPPGKGLEWIGSIYYSGSTYYNPSLKSRVTISVDTSKNQFSLKLSSVTAADTAVYYCARDPGYSASPNWFDPWGQGTLVTVSS VL: not shown | 157000 MFI | 2240 fold | 33700 MFI | 2.46e+06 MFI | 153000 MFI | 209000 MFI | 2.11 fold over IgG4 control | 1.19 fold over IgG4 control | 808000 MFI | no binding (tested: 100 nM) | 5.77 nM | 2.42e+06 MFI | 0.352 nM | 3.03e+06 MFI | 

Results, then the binder that gave them:

CHO-OX40 binding intensity (MFI) [1] | Fold difference [2] | MFI of OX40L signal on CHO-OX40 cells [3] | MFI [4] | MFI [5] | MFI [6] | NFkB-Luc fold change in Jurkat stimulated by PHA+ anti-CD28 [7] | NFkB-Luc fold change in Jurkat stimulated by anti-CD3+ anti-CD28 [7] | MFI [8] | binding result [9] | Kd [10] | MFI [11] | Kd [12] | MFI [13] | Kd [14] | Binder
152000 MFI | 2460 fold | 24000 MFI | 2e+06 MFI | 84400 MFI | 115000 MFI | 3.79 fold over IgG4 control | 3.98 fold over IgG4 control | 734000 MFI | no binding (tested: 100 nM) | 5.52 nM | 2.18e+06 MFI | 1.22 nM | 2.41e+06 MFI |  | ADI-20113, IgG1 format (antibody, V domains shown, Made in yeast) VH: QVQLVESGGGVVQPGRSLRLSCAASGFTFSSYGMHWVRQAPGKGLEWVAVISYDGSNKYYADSVKGRFTISRDNSKNTLYLQMNSLRAEDTAVYYCARGRPWYSETGTSAFDIWGQGTMVTVSS VL: EIVMTQSPATLSVSPGERATLSCRASQSVSSNLAWYQQKPGQAPRLLIYSASTRATGIPARFSGSGSGTEFTLTISSLQSEDFAVYYCQQHNVYPPYTFGGGTKVEIKR
133000 MFI | 1970 fold | 31900 MFI | 1.1e+06 MFI | 54600 MFI | 75400 MFI | 4.57 fold over IgG4 control | 5.12 fold over IgG4 control | 417000 MFI |  |  | 1.82e+06 MFI | 3.36 nM | 1.84e+06 MFI | 5.41 nM | ADI-20096, IgG1 format (antibody, V domains shown, Made in yeast) VH: EVQLVESGGGLVKPGGSLRLSCAASGFTFSSYSMNWVRQAPGKGLEWVSSISSSSNYIYYADSVKGRFTISRDNAKNSLYLQMNSLRAEDTAVYYCARGAPLGYSWEYFDLWGRGTLVTVSS VL: not shown
161000 MFI | 2750 fold | 32800 MFI | 2.82e+06 MFI | 134000 MFI | 193000 MFI | 2.09 fold over IgG4 control | 1.96 fold over IgG4 control | 626000 MFI | no binding (tested: 100 nM) | 14.3 nM | 2.39e+06 MFI | 0.91 nM | 2.55e+06 MFI |  | ADI-20066, IgG1 format (antibody, V domains shown, Made in yeast) VH: QLQLQESGPGLVKPSETLSLTCTVSGGSISSSSYYWGWIRQPPGKGLEWIGSIYYSGSTYYNPSLKSRVTISVDTSKNQFSLKLSSVTAADTAVYYCARDPGYSASPNWFDPWGQGTLVTVSS VL: EIVLTQSPGTLSLSPGERATLSCRASQSVSSSFLAWYQQKPGQAPRLLIYGASSRATGIPDRFSGSGSGTDFTLTISRLEPEDFAVYYCQQYDVFPITFGGGTKVEIKR
